Measured values reported in publication PMC11357854, “Molecular insights into the regulatory landscape of PKC-related kinase-2 (PRK2/PKN2) using targeted small compounds” (The Journal of Biological Chemistry, 2024).
Where a chain is given by its changes, count along the chain named. Numbers in names are those of the source. No end group written: not given here. *: point of attachment. Biotin = O=C1N[C@H]2[C@H](CS[C@H]2CCCCC(=O)*)N1

T1: His-PDK1_(50-359) [PRK2-pocket] (UniProt O15530 50-359, K76Q | I119V | V127L | T128M | R131K | T148C | L155V)
T1 construct: also called PDK1 [PRK2-pocket]; His-PDK1 [PIF-pocket PRK2]; source: Sf9 (Bac-to-Bac), purified (nickel-nitrilotriacetic acid, gel filtration)
T1 sequence (looked up): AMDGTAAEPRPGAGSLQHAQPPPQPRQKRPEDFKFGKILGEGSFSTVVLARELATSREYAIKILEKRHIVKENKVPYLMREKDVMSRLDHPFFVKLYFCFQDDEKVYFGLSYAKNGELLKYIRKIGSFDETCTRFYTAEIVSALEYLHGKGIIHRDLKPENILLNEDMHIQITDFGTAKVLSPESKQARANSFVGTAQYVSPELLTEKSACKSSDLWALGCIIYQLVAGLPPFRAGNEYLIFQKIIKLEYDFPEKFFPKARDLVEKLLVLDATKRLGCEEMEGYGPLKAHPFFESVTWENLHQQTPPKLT

B1: biotin-PKLtide (peptide)
peptide: Biotin-PKLQRQKKIFSKQQG
notes: polypeptide comprising the pseudosubstrate PKL region of PRK2; source: synthetic peptide (JPT Peptide Technologies)
B2: His-PDK1_(1-556) (enzyme, UniProt O15530 1-556, looked up)
chain: MARTTSQLYDAVPIQSSVVLCSCPSPSMVRTQTESSTPPGIPGGSRQGPAMDGTAAEPRPGAGSLQHAQPPPQPRKKRPEDFKFGKILGEGSFSTVVLARELATSREYAIKILEKRHIIKENKVPYVTRERDVMSRLDHPFFVKLYFTFQDDEKLYFGLSYAKNGELLKYIRKIGSFDETCTRFYTAEIVSALEYLHGKGIIHRDLKPENILLNEDMHIQITDFGTAKVLSPESKQARANSFVGTAQYVSPELLTEKSACKSSDLWALGCIIYQLVAGLPPFRAGNEYLIFQKIIKLEYDFPEKFFPKARDLVEKLLVLDATKRLGCEEMEGYGPLKAHPFFESVTWENLHQQTPPKLTAYLPAMSEDDEDCYGNYDNLLSQFGCMQVSSSSSSHSLSASDTGLPQRSGSNIEQYIHDLDSNSFELDLQFSEDEKRLLLEKQAGGNPWHQFVENNLILKMGPVDKRKGLFARRRQLLLTEGPHLYYVDPVNKVLKGEIPWSQELRPEAKNFKTFFVHTPNRTYYLMDPSGNAHKWCRKIQEVWRQRYQSHPDAAVQ
notes: also called full-length PDK1; His-PDK1 FL; source: Sf9 (Bac-to-Bac), purified (nickel-nitrilotriacetic acid, gel filtration)
B3: His-PDK1_(50-359) (domain or fragment, UniProt O15530 50-359, looked up)
chain: T1 sequence (looked up) with Q27K, V70I, L78V, M79T, K82R, C99T, V106L
notes: also called catalytic domain of PDK1; source: Sf9 (Bac-to-Bac), purified (nickel-nitrilotriacetic acid, gel filtration)
B4: GST-PRK2_(643-984) WT (domain or fragment)
chain: not shown
modifications: phosphorylated at the activation loop (Thr816 in PRK2)
notes: PKC-related kinase 2 (PRK2/PKN2), catalytic domain with the C-terminal PIF/HM region, lacking the N-terminal 642 residues; also called isolated catalytic domain of PRK2; GST-PRK2 CD WT; source: HEK293T, transient transfection (pEBG2T-derived plasmid), purified
B5: GST-PRK2_(643-984) [T958A] (domain or fragment)
chain: not shown
modifications: phosphorylated at the activation loop (Thr816 in PRK2)
notes: source: HEK293T, transient transfection (pEBG2T-derived plasmid), purified
B6: PIFtide (peptide)
peptide: REPRILSEEEQEMFRDFDYIADWC
notes: also called polypeptide PIF; HM polypeptide derived from the C terminus of PRK2; source: synthetic peptide (JPT Peptide Technologies)
B7: biotin-PIFtide (Cys → Ser) (peptide)
peptide: Biotin-REPRILSEEEQEMFRDFDYIADWS
notes: PIFtide, C-terminal region of PRK2, with the last Cys replaced by Ser; source: synthetic peptide (Pepscan)

Legend:
Conditions in all cases: both partners purified
GST-PRK2_(643-984) WT [1] = target: B4; assay: AlphaScreen or HTRF; GST-PRK2_(643-984) (1.5 nM) and biotin-PKLtide (75 nM) with varied compounds or 5% DMSO; anti-GST-coated acceptor beads and streptavidin-coated donor beads
GST-PRK2_(1-984) [T958A] = target: T2, GST-PRK2_(1-984) [T958A] (UniProt Q16513 1-984, T958A, phosphorylated at the activation loop (Thr816 in PRK2)); assay: AlphaScreen or HTRF; competitive displacement of His-PDK1 / GST-PRK2 [T958A] complexes by varied PIFtide; 30 to 40 nM PDK1 versus 5 to 10 nM PRK2; nickel chelate acceptor beads and glutathione donor beads
T2 construct: also called full-length PRK2 T958A; source: HEK293T, transient transfection (pEBG2T-derived plasmid), purified

GST-PRK2_(1-984) WT = target: T3, GST-PRK2_(1-984) WT (UniProt Q16513 1-984, phosphorylated at the activation loop (Thr816 in PRK2)); assay: AlphaScreen or HTRF; His-PDK1 fixed at 20 nM against varied GST-PRK2 constructs; nickel chelate acceptor beads and glutathione donor beads; 50 mM Tris-HCl pH 7.4 (or 20 mM Hepes pH 7.5), 100 mM NaCl, 1 to 2 mM DTT, 0.01% Tween 20, 0.1% BSA; 90 min at room temperature
T3 construct: also called full-length PRK2; PKN2; source: HEK293T, transient transfection (pEBG2T-derived plasmid), purified

GST-PRK2_(643-984) WT [2] = target: B4; assay: AlphaScreen or HTRF; His-PDK1 and GST-PRK2 at fixed concentrations (30 to 50 nM PDK1, 5 to 50 nM PRK2) with varied small compounds (PS210, GSK2334470, UCN-01, Y-27632); nickel chelate acceptor beads and glutathione donor beads
[3] = target: B5; assay: as above
His-PDK1_(1-556) [4] = target: B2; assay: AlphaScreen or HTRF; His-PDK1 fixed at 20 nM against varied GST-PRK2 constructs; nickel chelate acceptor beads and glutathione donor beads; 50 mM Tris-HCl pH 7.4 (or 20 mM Hepes pH 7.5), 100 mM NaCl, 1 to 2 mM DTT, 0.01% Tween 20, 0.1% BSA; 90 min at room temperature
His-PDK1_(1-556) [5] = target: B2; assay: AlphaScreen or HTRF; competitive displacement of His-PDK1 / GST-PRK2 [T958A] complexes by varied PIFtide; 30 to 40 nM PDK1 versus 5 to 10 nM PRK2; nickel chelate acceptor beads and glutathione donor beads
His-PDK1_(50-359) [6] = target: B3; assay: as above
His-PDK1_(50-359) [7] = target: B3; assay: AlphaScreen or HTRF; His-tagged PDK1 construct (30 nM) and biotin-PIFtide (Cys → Ser; 10 or 30 nM), cross-titration and displacement by small compounds; nickel chelate and streptavidin-coated beads
[8] = target: T1, His-PDK1_(50-359) [PRK2-pocket]; assay: as above

## B1
GST-PRK2_(643-984) WT [1]
  binding result: binds

## B2
GST-PRK2_(1-984) [T958A]
  binding result: binds
GST-PRK2_(1-984) WT
  binding result: binds

## B3
GST-PRK2_(1-984) [T958A]
  binding result: binds
GST-PRK2_(643-984) WT [2]
  binding result: binds
[3]
  binding result: binds
GST-PRK2_(1-984) WT
  binding result: binds

## B4
His-PDK1_(1-556) [4]
  binding result: binds

## B5
His-PDK1_(1-556) [5]
  binding result: binds

## B6
His-PDK1_(50-359) [6]
  binding result: binds
His-PDK1_(1-556) [5]
  binding result: binds

## B7
His-PDK1_(50-359) [7]
  binding result: binds
[8]
  binding result: binds
